Measurements from publication PMC5570900, “Exploiting a novel conformational switch to control innate immunity mediated by complement protein C3a” (Nature Communications, 2017).

What was measured:
Rat plasma stability = type: in vitro ADME; settings: 37 °C
Protocol: (§1) For plasma stability studies, C3a and experimental compounds (10 μL, 1 mM in DMSO) were added to neat rat plasma (190 μL) and heated to 37 °C in a circulating water bath. Aliquots (20 µL) were collected at time points (0, 2, 5 and 10 min for C3a; 0, 5, 15, 30, 60, 120 and 240 min for other test compounds) and added directly to MeCN/H2O (80 µL, 9:1). The samples were centrifuged at 13,000 g for 3 min before supernatants were isolated and analyzed for test compound degradation via LC-MS. For liver microsomal stability studies, commercially available rat liver microsomes from Life Technologies, GIBCO were used. In brief, microsomes stored at −80 °C were slowly defrosted on ice. Test compounds (183 μL, 1 μM in 100 mM phosphate buffer pH 7.4 containing 0.1 % DMSO) were added to microsomes (5 μL) and NADPH (2 µL, 20 mM). Test solutions were heated in a circulating water bath at 37 °C for 5 min before additional cofactor NADPH (10 μL, 20 mM) was added. Aliquots (20 μL) were taken at time points (0, 5, 15, 30 and 60 min from the second addition of NADPH). Aliquots were added to MeCN/H2O (80 μL, 9:1) and centrifuged at 13,000 g for 3 min. Supernatants were analyzed for test compound degradation by LC-MSMS. Concentrations were plotted as a function of time on a semi-logarithmic graph. Rat plasma and microsomal activity was confirmed by rapid degradation of SLIGRL-NH2 (t1/2 < 5 min) in a parallel experiment.

[1] = Rat liver microsomal stability; type: in vitro ADME; settings: rat, liver microsomes, pH 7.4; parallel control experiment, 37 °C; read-out: t1/2 in rat liver microsomes
Protocol: as §1

C3aR [2] = biological target: T1, C3aR (Homo sapiens, UniProt Q16581); assay: Histamine secretion in human LAD2 mast cells (agonist mode); type: cell-based; design: Concentration-dependent histamine secretion in human LAD2 mast cells; endogenous in cells; host or cells: LAD2 human mast cells; settings: compound alone, 30 min, n ≥ 3, ± SEM
T1 sequence (Q16581 1-482): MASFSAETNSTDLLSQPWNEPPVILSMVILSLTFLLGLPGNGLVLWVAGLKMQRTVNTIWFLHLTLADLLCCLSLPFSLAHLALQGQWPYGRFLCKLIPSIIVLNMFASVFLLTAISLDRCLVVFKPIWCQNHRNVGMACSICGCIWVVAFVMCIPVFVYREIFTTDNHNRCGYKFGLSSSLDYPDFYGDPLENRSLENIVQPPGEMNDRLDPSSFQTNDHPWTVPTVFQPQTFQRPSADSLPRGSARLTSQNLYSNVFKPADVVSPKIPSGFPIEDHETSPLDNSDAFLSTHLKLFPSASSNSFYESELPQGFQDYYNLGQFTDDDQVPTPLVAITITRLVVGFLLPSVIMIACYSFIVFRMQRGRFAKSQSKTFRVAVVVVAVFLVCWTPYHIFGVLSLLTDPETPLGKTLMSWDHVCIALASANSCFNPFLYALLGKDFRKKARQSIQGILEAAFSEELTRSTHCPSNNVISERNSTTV
Protocol: LAD2 human mast cells (kindly provided by Dr Dean Metcalfe, National Institute of Allergy and Infectious Diseases, National Institute of Health) were cultured in StemPro®-34 Serum Free Media (Invitrogen, Australia) supplemented with StemPro®-34 nutrient, 100 U/mL penicillin, 100 μg/mL streptomycin, 2 mM GlutaMAX, and 100 ng/mL human stem cell factor (SCF). Cells were hemi-depleted weekly and were not allowed to grow beyond a density of 0.5 × 10^6/mL. This cell line was authenticated by expression of tryptase and histamine granules. For the histamine assay, 1 × 10^4 cells per well were seeded in StemPro®-34 SFM in 96-well plates for 30 min before any treatments. For agonist studies, the cells were treated with compounds prepared in media for 30 min. For antagonist studies, the cells were pre-treated with compounds prepared in SFM for 30 min before addition of C3aR agonists for another 30 min. Cells were centrifuged (500 g, 5 min, 4 °C) and cell-free supernatants were collected for measuring histamine. Histamine content was measured using the histamine EIA kit according to the manufacturer’s instructions (Abnova, Taiwan). The readings were recorded on a FLUOstar Optima (BMG LabTechnologies, Offenburg, Germany).

C5aR = biological target: T2, C5aR (Homo sapiens, UniProt P21730); assay: [125I]-hC5a competition binding on HMDMs; settings: [125I]-hC5a 25 pM
T2 construct: endogenous in cells; host or cells: primary human monocyte-derived macrophages (HMDMs)
T2 sequence (P21730 1-350): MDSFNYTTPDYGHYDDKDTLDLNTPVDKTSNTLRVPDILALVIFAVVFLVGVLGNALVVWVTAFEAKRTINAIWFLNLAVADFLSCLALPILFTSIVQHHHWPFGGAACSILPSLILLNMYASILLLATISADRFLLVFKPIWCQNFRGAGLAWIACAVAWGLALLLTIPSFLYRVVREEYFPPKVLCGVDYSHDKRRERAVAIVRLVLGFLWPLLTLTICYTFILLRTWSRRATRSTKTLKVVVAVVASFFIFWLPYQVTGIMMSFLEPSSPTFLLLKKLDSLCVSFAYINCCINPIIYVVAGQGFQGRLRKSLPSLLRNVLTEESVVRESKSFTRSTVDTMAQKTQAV
Protocol: Receptor binding was performed by ligand competition with labelled 80 pM [^125I]-C3a or 25 pM [^125I]-C5a (2200 Ci/mmol; Perkin Elmer, Torrance, CA, USA) on HMDMs (1.2 × 10^6 cells/ml). HMDMs were treated with [^125I]-C3a or [^125I]-C5a ± various concentrations of unlabelled C3a/C5a or experimental ligands were diluted with assay buffer (50 mM Tris, 3 mM MgCl2, 0.1 mM CaCl2, 0.5% (w/v) BSA, pH 7.4) for 60 min at room temperature. Unbound [^125I]-C3a or [^125I]-C5a was removed by filtration through glass microfibre filter GF/B (Whatman Iner. Ltd, England) and washed three times with cold buffer (50 mM Tris-HCl pH 7.4). Bound [^125I]-C3a or [^125I]-C5a were assessed by scintillation counting on Microbeta counter. Specific binding was defined as the difference between total binding and nonspecific binding as determined in the presence of 1 μM unlabelled C3a or C5a[4].

C3aR [3] = biological target: T1, C3aR; assay: Intracellular Ca2+ release in HEK293 cells transfected with C3aR; type: cell-based; design: Concentration-dependent Ca^2+ release in human monocyte-derived macrophages (HMDMs); endogenous in cells; host or cells: primary human monocyte-derived macrophages (HMDMs); settings: HEK293 cells transfected with C3aR (C3aR+/+), compound alone
[4] = tested on: wild-type human HEK293 cells (C3aR−/−); assay: Intracellular Ca2+ release in wild-type HEK293 cells; type: cell-based
C3aR [5] = biological target: T1, C3aR; assay: Intracellular Ca2+ release in human monocyte-derived macrophages (agonist mode); type: cell-based; design: Concentration-dependent Ca^2+ release in human monocyte-derived macrophages (HMDMs); endogenous in cells; host or cells: primary human monocyte-derived macrophages (HMDMs); settings: HMDMs, n ≥ 3, ± SEM
Protocol: HMDMs were isolated using Ficoll-paque density centrifugation (GE Healthcare Bio-Science, Uppsala, Sweden) from buffy coat (of anonymous human donors) provided by the Australian Red Cross Blood Service, Brisbane. CD14^+ monocytes were positively selected using CD14 MicroBeads (Miltenyi Biotech, Auburn, USA)[40], [41]. CD14^+ monocytes were differentiated to HMDMs using 100 ng/mL of recombinant human macrophage colony-stimulating factor (PeptroTech, Rocky Hill, USA) for 7 days in Iscove’s modified Dulbecco’s media supplemented with 10% fetal bovine serum, penicillin (100 U/mL), streptomycin (100 µg/mL) and L-glutamine (2 mM). HMDMs were supplemented after 5 days with fresh medium containing 10 ng/ml macrophage colony-stimulating factor and collected by gentle scraping on day 7.
HMDMs were seeded to a 96-well clear-bottom black-wall assay plate at a density of 5 × 10^4 cells per well and allowed to adhere overnight. Prior to assay, cells were incubated with dye-loading buffer (Hank’s balance salt solution (HBSS) buffer, 4 μM Fluo-3 AM, 25 μl Pluronic acid F-127 and 1% fetal bovine serum) for 1 h at 37 °C. Cells were then washed once with assay buffer (HBSS supplemented with 2.5 mM probenecid and 20 mM HEPES, pH 7.4). Intracellular calcium release was monitored using a fluorescence imaging plate reader (excitation 495 nm, emission 520 nm). The percentage responses were plotted against logarithmic concentrations of each test compound[42].

half-life at 50 µM (Rat plasma stability; rat, plasma (neat), parallel control experiment, read-out: t1/2 in rat plasma) [min] | half-life at 0.915 µM [1] [min] | Substance | EC50 (C3aR [2]) [nM] | C5aR binding by competition with [125I]-hC5a (C5aR) | Intracellular Ca2+ release (C3aR [3]) | Stability in rat plasma (Rat plasma stability; neat rat plasma, over 4 h (C3a up to 10 min)) | Intracellular Ca2+ release [4] | EC50 (C3aR [5]) [nM]
< 5 | < 5 | H-SLIGRL-NH2 [SLIGRL-NH2, reference compound] | – | – | – | – | – | –
– | – | hC3a: human complement protein C3a, 77 residue ~9 kDa helix bundle inflammatory protein | 3 ± 1.5 | no binding | did induce Ca^2+ release | degraded within minutes | did not induce Ca^2+ release | 8 ± 2
